Several values for one entry are separate records, joined by “and”; a condition that tells them apart may be missing. Equal entries are not always repeated.
T1: hMUC16.mmh (human)
T1 construct: also called hMUC16 with C-term myc-myc-6xHis tag; human MUC16 membrane proximal domain (P13810-P14451) having a myc-myc-his tag
T1 chain: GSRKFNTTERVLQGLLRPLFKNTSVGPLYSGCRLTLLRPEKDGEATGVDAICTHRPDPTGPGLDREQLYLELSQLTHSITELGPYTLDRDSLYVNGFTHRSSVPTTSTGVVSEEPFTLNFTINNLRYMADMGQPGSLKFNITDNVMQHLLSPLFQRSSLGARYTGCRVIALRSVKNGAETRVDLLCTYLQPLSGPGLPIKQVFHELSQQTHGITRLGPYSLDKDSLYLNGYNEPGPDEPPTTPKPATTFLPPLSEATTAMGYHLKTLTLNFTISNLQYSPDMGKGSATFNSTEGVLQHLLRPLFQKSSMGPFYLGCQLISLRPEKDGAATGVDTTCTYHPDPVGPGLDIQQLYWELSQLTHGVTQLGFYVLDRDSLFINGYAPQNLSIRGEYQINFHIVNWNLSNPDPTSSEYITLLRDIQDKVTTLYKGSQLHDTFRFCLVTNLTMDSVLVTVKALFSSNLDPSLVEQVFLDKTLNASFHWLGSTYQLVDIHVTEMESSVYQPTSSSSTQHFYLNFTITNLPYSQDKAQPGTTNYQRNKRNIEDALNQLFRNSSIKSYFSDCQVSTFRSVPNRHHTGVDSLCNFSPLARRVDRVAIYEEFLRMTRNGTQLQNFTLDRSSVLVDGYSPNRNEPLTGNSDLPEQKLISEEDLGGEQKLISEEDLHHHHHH


Key:
[1] = biological target: T2, human CD28 on human T cells (human, UniProt P10747 19-152); experiment: cell-based or functional assay
[2] = biological target: T2, human CD28 on human T cells; experiment: flow cytometry, human CD4+ T cells
Procedure: (§1) After incubation, the cells were washed twice with cold PBS containing 1% filtered FBS and a PE-conjugated or Alexa647-conjugated anti-human secondary antibody was added to the MUC16 expressing cells or Human/Cyno T cells, respectively, and incubated for an additional 30 minutes. Live/dead dye was added to Human and Cynomolgus T cells incubations. Wells containing no antibody or secondary only were used as a control.
(§2) After incubation with Human or Cynomolgus T cells, cells were washed, and stained with a cocktail of anti-CD2, ant-CD16, anti-CD4, and anti-CD8 antibodies in Brilliant Stain Buffer for an extra 20 min incubation at 4° C. After wash, cells were re-suspended in 200 μL cold PBS containing 1% filtered FBS, gated in a Live/CD2+/CD4+/CD16− or Live/CD2+/CD8+/CD16− gate and analyzed by Flow cytometry on a BD FACS LSR-Fortessa-X20.

[3] = biological target: T3, cynomolgus CD28 on cynomolgus T cells (cynomolgus monkey, UniProt Q0PDN3 19-220); experiment: flow cytometry, cynomolgus CD4+ T cells
T3 construct: whole, on cells
Procedure: as §1, §2

[4] = biological target: T3, cynomolgus CD28 on cynomolgus T cells; experiment: flow cytometry, cynomolgus CD8+ T cells
Procedure: as §1, §2

[5] = biological target: T2, human CD28 on human T cells; experiment: cell-based or functional assay; remark: listed apart in the source
[6] = biological target: T2, human CD28 on human T cells; experiment: flow cytometry, human CD8+ T cells
Procedure: as §1, §2

hMUC16.mmh = biological target: T1, hMUC16.mmh; experiment: SPR (Biacore), 37 C, antibody captured by anti-human Fc, hMUC16.mmh injected
Procedure: (§3) The dissociation of bound hMUC16, hCD28, and mCD28 reagents was monitored for 10 minutes in HBS-ET running buffer. Association (kₐ) and dissociation (kd) rate constants were determined by fitting the real-time binding sensorgrams to a 1:1 binding model with mass transport limitation using Scrubber evaluation software version 2.0c. Binding dissociation equilibrium constants (KD) and dissociative half-lives (t½) were calculated from the kinetic rate constants as:

hCD28.mmh = biological target: T4, hCD28.mmh (human); experiment: SPR (Biacore), 37 C, antibody captured by anti-human Fc, hCD28.mmh injected
T4 construct: also called hCD28 with C-term myc-myc-6xHis tag; human CD28 ecto domain (N19-P152) having a myc-myc-his tag
Procedure: as §3

Binder | IL-2 release from primary human CD4+ T cells, EC50, OVCAR3 target cells, 5 nM REGN4018 [1] [pM] | IL-2 release from primary human CD4+ T cells, fold induction, OVCAR3 target cells, 5 nM REGN4018 [1] [fold] | IL-2 release from primary human CD4+ T cells, fold induction, PEO-1 target cells, 5 nM REGN4018 [1] [fold] | EC50 [2] [µM] | EC50 [3] [nM] | EC50 [4] [nM] | IL-2 release from primary human CD4+ T cells, fold induction, OVCAR3 target cells, 5 nM hIgG4 isotype control [5] [fold] | IL-2 release from primary human CD4+ T cells, fold induction, PEO-1 target cells, 5 nM hIgG4 isotype control [5] [fold] | EC50 [6] [µM] | IL-2 release from primary human CD4+ T cells, EC50, PEO-1 target cells, 5 nM REGN4018 [1] [pM] | Kd (hMUC16.mmh) | T½ (hMUC16.mmh) | koff (hMUC16.mmh) | kon (hMUC16.mmh) | Kd (hCD28.mmh) [nM] | T½ (hCD28.mmh) [min] | koff (hCD28.mmh) [s⁻¹] | kon (hCD28.mmh) [M⁻¹ s⁻¹]
bs32897D (bispecific antibody, V domains shown, also called anti-MUC16xCD28) VH 1: EVQLVESGGGLVQPGGSLRLSCAASGFTFSRNNMHWVRQAPGKGLEYVSGISSNGGRTYYADSVKGRFTISRDNSKNTLYLQMGGLRAADMAVYFCTRDDELLSFDYWGQGTLVTVSS VH 2: QVQLVESGGGLVKPGGSLRLSCAASGFTFRDYSMSWIRQAPGKGLEWVSYVTFFNSAIYYADSVKGRFTISRDNAKNSLYLQMNSLRAEDTAVYYCAREREPIVGGFDYWGQGTLVTVSS VL: not shown | 607 | 5.63 | 5.22 | 9.16 | 5700 | 3020 | 1.06 | 1.12 | 7.58 | – | – | – | – | – | – | – | – | –
Parental 1 hCD28 (for bs32897D) (antibody, V domains shown) VH: EVQLVESGGGLVQPGGSLRLSCAASGFTFSRNNMHWVRQAPGKGLEYVSGISSNGGRTYYADSVKGRFTISRDNSKNTLYLQMGGLRAADMAVYFCTRDDELLSFDYWGQGTLVTVSS VL: not shown | – | 1.58 | 1.42 | – | – | – | 1.1 | 1.3 | – | – | – | – | – | – | – | – | – | –
bs24963D (bispecific antibody, IgG4, V domains shown, Two different heavy chains pair with a common light chain; also called REGN5668; anti-MUC16xCD28) VH 1: QVQLQESGPGLVKPSETLSLTCTVSGGSISSYYWSWIRQPPGKGLEWIGYIYYSGITHYNPSLKSRVTISVDTSKIQFSLKLSSVTAADTAVYYCARWGVRRDYYYYGMDVWGQGTTVTVSS VH 2: EVQLVESGGGLEQPGRSLRLSCTASGFAFGDHTMSWVRQAPGKGLEWVGFIRSRAYGGTTEYAASVKGRFTISRDDSKSIAYLQMDSLKTEDTAVYYCTSGGYDSSLHYYYYYHGMDVWGRGTTVTVSS VL: not shown | 401 | 5.32 | 10.9 | 0.261 | 203 | 122 | 1.33 | 1.12 | 0.253 | 996 | 0.933 nM and 0.912 nM | 53.1 min and 28 min | 0.000412 s⁻¹ and 0.000218 s⁻¹ | 441000 M⁻¹ s⁻¹ and 238000 M⁻¹ s⁻¹ | 165 | 2.1 | 0.00538 | 32700
Parental 2 hCD28 (for bs24963D) (antibody, V domains shown) VH: QVQLQESGPGLVKPSETLSLTCTVSGGSISSYYWSWIRQPPGKGLEWIGYIYYSGITHYNPSLKSRVTISVDTSKIQFSLKLSSVTAADTAVYYCARWGVRRDYYYYGMDVWGQGTTVTVSS VL: not shown | – | 2.46 | 2.05 | – | – | – | 1.12 | 1.03 | – | 107 | – | – | – | – | – | – | – | –

— patent US20200199233A1 (Regeneron, published 2020)
